Tests used:
[1] = biological target: Snake Adenovirus 1 (SnAdV-1) fibre protein construct 171-345 (Snake Adenovirus 1 (SnAdV-1)); test: crystal structure
[2] = biological target: Snake Adenovirus 1 (SnAdV-1) fibre head domain, construct 234-345, native (Snake Adenovirus 1 (SnAdV-1)); test: crystal structure

“Snake Adenovirus 1 (SnAdV-1) fibre protein construct 171-345 (domain or fragment)” was tested, and the stoichiometry N [1] was 3.
“Snake Adenovirus 1 (SnAdV-1) fibre head domain, construct 234-345, native (domain or fragment)” was tested, and the stoichiometry N [2] was 3.

From PMC4259310
